From US20190361034A1
Blank lines part the entries; values can stand above or below the substance they belong to.

Assays:
[1] = molecular target: MHC class II molecules on MHC class II-expressing Raji cells (human); experiment: direct ELISA, plate-immobilised Raji cells; 10% FBS, 5,000 cells; 500 ng/ml
[2] = molecular target: MHC class II molecules on MHC class II-expressing Raji cells (human); experiment: transfer cell ELISA, Raji cells; 3.906 ng/ml; plate row C
[3] = molecular target: MHC class II molecules on MHC class II-expressing Raji cells (human); experiment: direct ELISA, plate-immobilised Raji cells; 5% BSA, 5,000 cells; 62.5 ng/ml
[4] = molecular target: MHC class II molecules on MHC class II-expressing Raji cells (human); experiment: direct ELISA, plate-immobilised Raji cells; 5% BSA, 10,000 cells; 62.5 ng/ml
[5] = molecular target: MHC class II molecules on MHC class II-expressing Raji cells (human); experiment: direct ELISA, plate-immobilised Raji cells; 10% FBS, 2,500 cells; 500 ng/ml
[6] = molecular target: MHC class II molecules on MHC class II-expressing Raji cells (human); experiment: direct ELISA, plate-immobilised Raji cells; 10% FBS, 5,000 cells; 250 ng/ml
[7] = molecular target: MHC class II molecules on MHC class II-expressing Raji cells (human); experiment: transfer cell ELISA, Raji cells; 31.25 ng/ml; plate row D
[8] = molecular target: MHC class II molecules on MHC class II-expressing Raji cells (human); experiment: transfer cell ELISA, Raji cells; 62.5 ng/ml; plate row C
[9] = molecular target: MHC class II molecules on MHC class II-expressing Raji cells (human); experiment: transfer cell ELISA, Raji cells; 1.953 ng/ml; plate row C
[10] = molecular target: MHC class II molecules on MHC class II-expressing Raji cells (human); experiment: transfer cell ELISA, Raji cells; 0.977 ng/ml; plate row D
[11] = molecular target: MHC class II molecules on MHC class II-expressing Raji cells (human); experiment: transfer cell ELISA, Raji cells; 250 ng/ml; plate row C
[12] = molecular target: MHC class II molecules on MHC class II-expressing Raji cells (human); experiment: direct ELISA, plate-immobilised Raji cells; 5% BSA, 10,000 cells; 250 ng/ml
[13] = molecular target: MHC class II molecules on MHC class II-expressing Raji cells (human); experiment: direct ELISA, plate-immobilised Raji cells; 5% BSA, 10,000 cells; 125 ng/ml
[14] = molecular target: MHC class II molecules on MHC class II-expressing Raji cells (human); experiment: direct ELISA, plate-immobilised Raji cells; 10% FBS, 10,000 cells; 250 ng/ml
[15] = molecular target: MHC class II molecules on MHC class II-expressing Raji cells (human); experiment: direct ELISA, plate-immobilised Raji cells; 10% FBS, 2,500 cells; 125 ng/ml
[16] = molecular target: MHC class II molecules on MHC class II-expressing Raji cells (human); experiment: transfer cell ELISA, Raji cells; 500 ng/ml; plate row D
[17] = molecular target: MHC class II molecules on MHC class II-expressing Raji cells (human); experiment: direct ELISA, plate-immobilised Raji cells; 5% BSA, 5,000 cells; 31.25 ng/ml
[18] = molecular target: MHC class II molecules on MHC class II-expressing Raji cells (human); experiment: transfer cell ELISA, Raji cells; 1000 ng/ml; plate row C
[19] = molecular target: MHC class II molecules on MHC class II-expressing Raji cells (human); experiment: direct ELISA, plate-immobilised Raji cells; 10% FBS, 10,000 cells; 62.5 ng/ml
[20] = molecular target: MHC class II molecules on MHC class II-expressing Raji cells (human); experiment: direct ELISA, plate-immobilised Raji cells; 10% FBS, 5,000 cells; 1000 ng/ml
[21] = molecular target: MHC class II molecules on MHC class II-expressing Raji cells (human); experiment: direct ELISA, plate-immobilised Raji cells; 0.5% Casein, 5,000 cells; 62.5 ng/ml
[22] = molecular target: MHC class II molecules on MHC class II-expressing Raji cells (human); experiment: direct ELISA, plate-immobilised Raji cells; 3% gelatin, 10,000 cells; 125 ng/ml
[23] = molecular target: MHC class II molecules on MHC class II-expressing Raji cells (human); experiment: BLI; immobilised sample, Raji cells in solution; control of FIG. 19 (37° C., 1 day, no H2O2)
[24] = molecular target: MHC class II molecules on MHC class II-expressing Raji cells (human); experiment: direct ELISA, plate-immobilised Raji cells; 3% gelatin, 2,500 cells; 125 ng/ml
[25] = molecular target: MHC class II molecules on MHC class II-expressing Raji cells (human); experiment: direct ELISA, plate-immobilised Raji cells; 0.5% Casein, 10,000 cells; 15.625 ng/ml
[26] = molecular target: MHC class II molecules on MHC class II-expressing Raji cells (human); experiment: direct ELISA, plate-immobilised Raji cells; 0.5% Casein, 10,000 cells; 250 ng/ml
[27] = molecular target: MHC class II molecules on MHC class II-expressing Raji cells (human); experiment: direct ELISA, plate-immobilised Raji cells; 0.5% Casein, 10,000 cells; 1000 ng/ml
[28] = molecular target: MHC class II molecules on MHC class II-expressing Raji cells (human); experiment: transfer cell ELISA, Raji cells; 1.953 ng/ml
[29] = molecular target: MHC class II molecules on MHC class II-expressing Raji cells (human); experiment: direct ELISA, plate-immobilised Raji cells; 3% gelatin, 2,500 cells; 62.5 ng/ml
[30] = molecular target: MHC class II molecules on MHC class II-expressing Raji cells (human); experiment: direct ELISA, plate-immobilised Raji cells; 0.5% Casein, 5,000 cells; 500 ng/ml
[31] = molecular target: MHC class II molecules on MHC class II-expressing Raji cells (human); experiment: BLI; IMP321 sample diluted from reference standard to 50% binding potency, Raji cells in solution; relative to reference standard
[32] = molecular target: MHC class II molecules on MHC class II-expressing Raji cells (human); experiment: transfer cell ELISA, Raji cells; 125 ng/ml
[33] = molecular target: MHC class II molecules on MHC class II-expressing Raji cells (human); experiment: transfer cell ELISA, Raji cells; 0.977 ng/ml

OD (ELISA signal) [1]: 1.63 OD
OD (ELISA signal) [2]: 0.012 OD
OD (ELISA signal) [3]: 0.303 OD
OD (ELISA signal) [4]: 0.283 OD
OD (ELISA signal) [5]: 1.8 OD
OD (ELISA signal) [6]: 0.939 OD
OD (ELISA signal) [7]: 0.049 OD
OD (ELISA signal) [8]: 0.082 OD
OD (ELISA signal) [9]: 0.011 OD
OD (ELISA signal) [10]: 0.01 OD
OD (ELISA signal) [11]: 0.276 OD
OD (ELISA signal) [12]: 0.91 OD
OD (ELISA signal) [13]: 0.395 OD
OD (ELISA signal) [14]: 0.762 OD
OD (ELISA signal) [15]: 1.12 OD
OD (ELISA signal) [16]: 0.594 OD
OD (ELISA signal) [17]: 0.297 OD
OD (ELISA signal) [18]: 0.878 OD
OD (ELISA signal) [19]: 0.29 OD
OD (ELISA signal) [20]: 2.25 OD
Substance: IMP321 treated with Peptide-N-Glycosidase F (PNGase F) (Fc fusion)

OD (ELISA signal) [21]: 0.131 OD
OD (ELISA signal) [22]: 0.688 OD
Bioactivity (binding) [23]: 85%
OD (ELISA signal) [24]: 0.77 OD
OD (ELISA signal) [25]: 0.185 OD
OD (ELISA signal) [26]: 0.241 OD
OD (ELISA signal) [27]: 0.16 OD
OD (ELISA signal) [28]: 0.026 OD
OD (ELISA signal) [29]: 0.399 OD
OD (ELISA signal) [30]: 0.206 OD
Potency determined by BLI assay [31]: 55%
OD (ELISA signal) [32]: 0.475 OD
OD (ELISA signal) [33]: 0.018 OD
Substance: IMP321, recombinant soluble human LAG-3Ig fusion protein (Fc fusion)
